Assay results published in US20110002926A1.

Tests used:
[1] = target: HCV E1E2 glycoproteins of genotype 1b (Con1) (Hepatitis C virus genotype 1b (Con1)) (UniProt Q9WMX2); experiment: cell-based or functional assay
[2] = target: HCV E1E2 glycoproteins of genotype 2a (J6) (Hepatitis C virus genotype 2a (J6)) (UniProt P26660); experiment: cell-based or functional assay
[3] = target: soluble HCV E2 (sE2661), HIS-tagged, baculovirus expressed (Hepatitis C virus (genotype not stated)); experiment: BIAcore SPR, sE2 injected over antibody
[4] = target: soluble HCV E2 (sE2661), HIS-tagged, baculovirus expressed (Hepatitis C virus (genotype not stated)); experiment: BIAcore SPR, sE2 injected over antibody; lower end differs from Table 10
[5] = target: soluble HCV E2 (sE2661), HIS-tagged, baculovirus expressed (Hepatitis C virus (genotype not stated)); experiment: BIAcore SPR

Sequence of HCV E1E2 glycoproteins of genotype 1b (Con1) (Hepatitis C virus genotype 1b (Con1)) (Q9WMX2 384-746 limits assumed, chain 1 of 2): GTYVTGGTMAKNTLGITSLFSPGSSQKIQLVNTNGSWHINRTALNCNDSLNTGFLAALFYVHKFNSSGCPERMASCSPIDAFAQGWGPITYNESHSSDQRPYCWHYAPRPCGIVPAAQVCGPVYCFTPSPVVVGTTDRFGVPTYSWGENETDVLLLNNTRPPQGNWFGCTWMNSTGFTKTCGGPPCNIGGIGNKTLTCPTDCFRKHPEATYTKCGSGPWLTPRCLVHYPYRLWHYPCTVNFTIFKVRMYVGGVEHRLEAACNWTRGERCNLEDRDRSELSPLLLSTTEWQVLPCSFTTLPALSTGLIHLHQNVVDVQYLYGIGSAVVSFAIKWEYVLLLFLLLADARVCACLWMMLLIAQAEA
Sequence of HCV E1E2 glycoproteins of genotype 1b (Con1) (Hepatitis C virus genotype 1b (Con1)) (Q9WMX2 192-383 limits assumed, chain 2 of 2): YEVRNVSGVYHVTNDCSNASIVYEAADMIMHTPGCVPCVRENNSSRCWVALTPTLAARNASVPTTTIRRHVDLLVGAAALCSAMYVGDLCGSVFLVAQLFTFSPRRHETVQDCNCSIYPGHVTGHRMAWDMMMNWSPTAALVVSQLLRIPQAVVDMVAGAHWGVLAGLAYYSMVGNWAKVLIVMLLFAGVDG

| Kd [5] | Substance | EC50 of HCVpp entry into Huh-7.5 cells (luciferase) [1] | EC50 of HCVpp entry into Huh-7.5 cells (luciferase) [2] | Kd [3] | Kd [4] |
| --- | --- | --- | --- | --- | --- |
| – | AP33 monoclonal antibody | 1.42 µg/mL | 2.07 µg/mL | 5 to 8 nM | 0.5 to 8 nM |
| 50 nM | AP33 Fab | – | – | – | – |
